Substrate: Nc1ncnc2c1ncn2[C@@H]1O[C@H](COP(=O)(O)OP(=O)(O)OP(=O)(O)O)[C@@H](O)[C@H]1O
Assay: malachite green ATPase assay, Michaelis-Menten fit
Format: biochemical, Homo sapiens
Conditions: 1 μM protein, no DNA (basal activity), 37 °C
Text: malachite green ATPase assay, Michaelis-Menten fit on hSWS1-SWSAP1 (human Shu complex)

B1: hSWS1-SWSAP1 (human Shu complex) (Homo sapiens) (protein)
chain: MPAAGPPLLLLGTPGSGKTALLFAAALEAAGEGQGPVLFLTRRPLQSMPRGTGTTLDPMRLQKIRFQYPPSTRELFRLLCSAHEAPGPAPSLLLLDGLEEYLAEDPEPQEAAYLIALLLDTAAHFSHRLGPGRDCGLMVALQTQEEAGSGDVLHLALLQRYFPAQCWLQPDAPGPGEHGLRACLEPGGLGPRTEWWVTFRSDGEMMIAPWPTQAGDPSSGKGSSSGGQP
notes: heterodimer co-expressed in High Five insect cells (baculovirus); SWSAP1 with TEV-cleavable N-terminal 6xHis tag (cleaved), SWS1 untagged; with Zinc finger SWIM domain-containing protein 7
- Km: 10.0 ± 0.2 mM
- Vmax: 0.75 µM/min
- kcat: 0.0125 s⁻¹
- kcat/Km: 1.3 M⁻¹ s⁻¹

Source: article PMC12167799, “The role of human Shu complex in ATP-dependent regulation of RAD51 filaments during homologous recombination–associated DNA damage response” (The Journal of Biological Chemistry, 2025)
